Results published in the supplement of paper PMC9112550, “Optimization of the antimicrobial peptide Bac7 by deep mutational scanning” (BMC Biology, 2022).

What follows are sequences tested on Escherichia coli TOP10 (assay: shrunken log2 fold change of peptide-encoding DNA abundance (4.5 h post-induction vs induction); higher = less antimicrobial activity (less host growth inhibition)). Conditions: time post-induction: 4.5 h; library: site-saturation at positions 5, 18, 19, 20.
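Note: peptides expressed intracellularly from a pBAD plasmid library in pooled LB shake-flask culture, induced with 0.3% L-arabinose, DNA abundance read by NGS, three biological replicates, DESeq2 with apeglm shrinkage.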

Row | Sequence | shrunken log2 fold change
1 | RRIRGRPPRLPRPRPRPPHQPRP | 0.806
2 | RRIRFRPPRLPRPRPRPKVEPRP | 0.114
3 | RRIRDRPPRLPRPRPRPRDHPRP | 0.0411
4 | RRIRLRPPRLPRPRPRPTQKPRP | 0.194
5 | RRIRARPPRLPRPRPRPFEPPRP | 0.276
6 | RRIRVRPPRLPRPRPRPFLIPRP | -0.777
7 | RRIRWRPPRLPRPRPRPCYPPRP | -0.466
8 | RRIRDRPPRLPRPRPRPFIGPRP | -0.158
9 | RRIRGRPPRLPRPRPRPLVVPRP | 0.39
10 | RRIRLRPPRLPRPRPRPDSGPRP | -0.00166
11 | RRIRYRPPRLPRPRPRPMRHPRP | -0.0913
12 | RRIRSRPPRLPRPRPRPILNPRP | -0.183
13 | RRIRMRPPRLPRPRPRPRANPRP | 0.922
14 | RRIRVRPPRLPRPRPRPPQIPRP | 0.22
15 | RRIRTRPPRLPRPRPRPHTTPRP | -0.166
16 | RRIRARPPRLPRPRPRPNHVPRP | -0.31
17 | RRIRKRPPRLPRPRPRPVGNPRP | 0.0255
18 | RRIRCRPPRLPRPRPRPLHVPRP | -0.178
19 | RRIRVRPPRLPRPRPRPWHYPRP | -0.647
20 | RRIRIRPPRLPRPRPRPKYWPRP | -0.678
21 | RRIRSRPPRLPRPRPRPLNQPRP | 0.479
22 | RRIRKRPPRLPRPRPRPWYPPRP | 0.00168
23 | RRIRERPPRLPRPRPRPWNVPRP | -0.0549
24 | RRIRFRPPRLPRPRPRPGFPPRP | 0.098
25 | RRIRCRPPRLPRPRPRPNFFPRP | 0.0889

Row | Sequence | shrunken log2 fold change
26 | RRIRCRPPRLPRPRPRPQGFPRP | -0.0235
27 | RRIRARPPRLPRPRPRPMETPRP | -0.0508
28 | RRIRIRPPRLPRPRPRPWVVPRP | -0.236
29 | RRIRHRPPRLPRPRPRPIGQPRP | -0.042
30 | RRIRHRPPRLPRPRPRPYQQPRP | -0.032
31 | RRIRSRPPRLPRPRPRPWTHPRP | -0.373
32 | RRIRYRPPRLPRPRPRPSYMPRP | -1.41
33 | RRIRFRPPRLPRPRPRPISCPRP | -0.038
34 | RRIRCRPPRLPRPRPRPCGIPRP | 0.153
35 | RRIRKRPPRLPRPRPRPFHQPRP | -0.0483
36 | RRIRIRPPRLPRPRPRPQCWPRP | 0.203
37 | RRIRMRPPRLPRPRPRPNDEPRP | 0.699
38 | RRIRFRPPRLPRPRPRPSDVPRP | 0.0142
39 | RRIRCRPPRLPRPRPRPVCDPRP | -0.245
40 | RRIRLRPPRLPRPRPRPCRNPRP | -0.241
41 | RRIRSRPPRLPRPRPRPMNKPRP | -0.6
42 | RRIRVRPPRLPRPRPRPTDEPRP | -0.148
43 | RRIRNRPPRLPRPRPRPHRPPRP | 0.128
44 | RRIRNRPPRLPRPRPRPYNWPRP | -0.161
45 | RRIRQRPPRLPRPRPRPTMKPRP | -0.314
46 | RRIRTRPPRLPRPRPRPDLQPRP | -0.0382
47 | RRIRTRPPRLPRPRPRPFKQPRP | 0.0538
48 | RRIRFRPPRLPRPRPRPVGDPRP | 0.535
49 | RRIRGRPPRLPRPRPRPAQIPRP | 0.592
50 | RRIRTRPPRLPRPRPRPIWSPRP | 0.0914

Row | Sequence | shrunken log2 fold change
51 | RRIRLRPPRLPRPRPRPPCSPRP | -0.0182
52 | RRIRSRPPRLPRPRPRPSLRPRP | -0.269
53 | RRIRIRPPRLPRPRPRPTSRPRP | -0.0459
54 | RRIRLRPPRLPRPRPRPTPKPRP | 0.137
55 | RRIRQRPPRLPRPRPRPTWAPRP | 0.586
56 | RRIRRRPPRLPRPRPRPPNCPRP | 0.15
57 | RRIRQRPPRLPRPRPRPCLMPRP | -0.0141
58 | RRIRPRPPRLPRPRPRPGNEPRP | -0.247
59 | RRIRGRPPRLPRPRPRPGNWPRP | 0.541
60 | RRIRCRPPRLPRPRPRPEHYPRP | -0.625
61 | RRIRMRPPRLPRPRPRPTCWPRP | 0.816
62 | RRIRGRPPRLPRPRPRPFDVPRP | 0.147
63 | RRIRQRPPRLPRPRPRPQIYPRP | 0.0392
64 | RRIRARPPRLPRPRPRPGFCPRP | 0.572
65 | RRIRLRPPRLPRPRPRPQTSPRP | -0.106
66 | RRIRSRPPRLPRPRPRPCDAPRP | -0.122
67 | RRIRPRPPRLPRPRPRPRGRPRP | 0.713
68 | RRIRWRPPRLPRPRPRPPKEPRP | 0.433
69 | RRIRYRPPRLPRPRPRPPKGPRP | -0.163
70 | RRIRFRPPRLPRPRPRPWLCPRP | -0.173
71 | RRIRERPPRLPRPRPRPPCAPRP | -0.0458
72 | RRIRCRPPRLPRPRPRPAVNPRP | -0.386
73 | RRIRVRPPRLPRPRPRPHFAPRP | 0.0941
74 | RRIRDRPPRLPRPRPRPLDQPRP | 0.0626
75 | RRIRSRPPRLPRPRPRPRFSPRP | 0.44

Row | Sequence | shrunken log2 fold change
76 | RRIRSRPPRLPRPRPRPPALPRP | 0.453
77 | RRIRIRPPRLPRPRPRPMTFPRP | -0.0432
78 | RRIRFRPPRLPRPRPRPFDFPRP | -0.692
79 | RRIRMRPPRLPRPRPRPEYQPRP | 0.0424
80 | RRIRHRPPRLPRPRPRPWFGPRP | -0.0191
81 | RRIRMRPPRLPRPRPRPRWMPRP | 0.315
82 | RRIRRRPPRLPRPRPRPLTMPRP | 0.0632
83 | RRIRLRPPRLPRPRPRPTQWPRP | 0.453
84 | RRIRPRPPRLPRPRPRPFRVPRP | 0.0659
85 | RRIRPRPPRLPRPRPRPSPYPRP | -0.461
86 | RRIRTRPPRLPRPRPRPLWVPRP | 0.0735
87 | RRIRKRPPRLPRPRPRPTRFPRP | 0.436
88 | RRIRSRPPRLPRPRPRPKTAPRP | 0.097
89 | RRIRDRPPRLPRPRPRPFHPPRP | -0.106
90 | RRIRSRPPRLPRPRPRPVMGPRP | -0.0522
91 | RRIRPRPPRLPRPRPRPMVCPRP | -0.0948
92 | RRIRMRPPRLPRPRPRPMIYPRP | -0.178
93 | RRIRRRPPRLPRPRPRPYPQPRP | -0.0454
94 | RRIRCRPPRLPRPRPRPDPVPRP | 0.205
95 | RRIRMRPPRLPRPRPRPLVHPRP | 0.035
96 | RRIRERPPRLPRPRPRPFYFPRP | 0.935
97 | RRIRWRPPRLPRPRPRPTHHPRP | 0.104
98 | RRIRDRPPRLPRPRPRPDDHPRP | 0.023
99 | RRIRGRPPRLPRPRPRPKFPPRP | 0.251
100 | RRIRKRPPRLPRPRPRPCQMPRP | -0.0362

Row | Sequence | shrunken log2 fold change
101 | RRIRQRPPRLPRPRPRPVVEPRP | 0.0249
102 | RRIRLRPPRLPRPRPRPHGAPRP | 0.0606
103 | RRIRPRPPRLPRPRPRPDQQPRP | -0.0644
104 | RRIRHRPPRLPRPRPRPVGLPRP | 0.119
105 | RRIRSRPPRLPRPRPRPKRSPRP | 0.205
106 | RRIRMRPPRLPRPRPRPHSCPRP | 0.0321
107 | RRIRQRPPRLPRPRPRPCYVPRP | -0.0541
108 | RRIRKRPPRLPRPRPRPWLCPRP | 0.466
109 | RRIRERPPRLPRPRPRPNKLPRP | -0.596
110 | RRIRLRPPRLPRPRPRPVETPRP | 0.217
111 | RRIRPRPPRLPRPRPRPGNNPRP | -0.103
112 | RRIRKRPPRLPRPRPRPKNGPRP | 0.173
113 | RRIRQRPPRLPRPRPRPNKQPRP | 0.0262
114 | RRIRSRPPRLPRPRPRPSNIPRP | -0.484
115 | RRIRIRPPRLPRPRPRPPITPRP | -0.366
116 | RRIRYRPPRLPRPRPRPYCWPRP | -1.07
117 | RRIRIRPPRLPRPRPRPMLCPRP | -0.0741
118 | RRIRWRPPRLPRPRPRPHFDPRP | -0.0757
119 | RRIRFRPPRLPRPRPRPARWPRP | 0.577
120 | RRIRQRPPRLPRPRPRPELWPRP | 0.27
121 | RRIRDRPPRLPRPRPRPRIHPRP | -0.563
122 | RRIRNRPPRLPRPRPRPILRPRP | -0.455
123 | RRIRIRPPRLPRPRPRPTAFPRP | -0.532
124 | RRIRVRPPRLPRPRPRPCCVPRP | -0.146
125 | RRIRDRPPRLPRPRPRPFELPRP | -0.0281

Row | Sequence | shrunken log2 fold change
126 | RRIRRRPPRLPRPRPRPLWPPRP | 0.484
127 | RRIRTRPPRLPRPRPRPRHPPRP | 0.225
128 | RRIRTRPPRLPRPRPRPKLVPRP | 0.016
129 | RRIRGRPPRLPRPRPRPESNPRP | 2
130 | RRIRWRPPRLPRPRPRPHIKPRP | -0.243
131 | RRIRMRPPRLPRPRPRPLFAPRP | 0.556
132 | RRIRKRPPRLPRPRPRPAHFPRP | 0.232
133 | RRIRSRPPRLPRPRPRPKRLPRP | 0.297
134 | RRIRWRPPRLPRPRPRPTARPRP | 0.0278
135 | RRIRHRPPRLPRPRPRPLPSPRP | 0.393
136 | RRIRFRPPRLPRPRPRPLSDPRP | 0.207
137 | RRIRARPPRLPRPRPRPKDKPRP | 0.0564
138 | RRIRLRPPRLPRPRPRPAKIPRP | -0.143
139 | RRIRERPPRLPRPRPRPRLIPRP | -0.635
140 | RRIRLRPPRLPRPRPRPVQSPRP | -0.031
141 | RRIRSRPPRLPRPRPRPFYVPRP | -0.546
142 | RRIRMRPPRLPRPRPRPPRWPRP | -0.117
143 | RRIRPRPPRLPRPRPRPLPSPRP | 0.0677
144 | RRIRWRPPRLPRPRPRPWEKPRP | 0.624
145 | RRIRDRPPRLPRPRPRPCGQPRP | -0.0223
146 | RRIRNRPPRLPRPRPRPYSPPRP | -0.276
147 | RRIRNRPPRLPRPRPRPERTPRP | -0.00566
148 | RRIRHRPPRLPRPRPRPWGAPRP | -0.0102
149 | RRIRQRPPRLPRPRPRPFGQPRP | -0.0598
150 | RRIRNRPPRLPRPRPRPPEWPRP | -0.188
